The text below walks through data of US7268108.

B1: Compound No. 2 in the Table, Ac-Nle-Ala-His-DPhe-Lys-Trp-NH2 (peptide)
peptide: Ac-[Nle]AH[dF]KW-NH2
SMILES: CCCC[C@H](NC(C)=O)C(=O)N[C@@H](C)C(=O)N[C@@H](Cc1c[nH]cn1)C(=O)N[C@H](Cc1ccccc1)C(=O)N[C@@H](CCCCN)C(=O)N[C@@H](Cc1c[nH]c2ccccc12)C(N)=O
B2: Compound No. 6 in the Table, BzlSO2-Nle-Ala-His-DPhe-Lys-Trp-NH2 (peptide)
peptide: Benzenesulfonyl-[Nle]AH[dF]KW-NH2
SMILES: CCCC[C@H](NS(=O)(=O)c1ccccc1)C(=O)N[C@@H](C)C(=O)N[C@@H](Cc1c[nH]cn1)C(=O)N[C@H](Cc1ccccc1)C(=O)N[C@@H](CCCCN)C(=O)N[C@@H](Cc1c[nH]c2ccccc12)C(N)=O

[ ]: non-standard residue; d: D form. The star is where a group is joined. dPhe(4-NO2) = N[C@H](Cc1ccc([N+](=O)[O-])cc1)C(=O)O; Benzenesulfonyl = O=S(=O)(c1ccccc1)*; d(hPhe) = N[C@H](CCc1ccccc1)C(=O)O; d2Thi = N[C@H](Cc1cccs1)C(=O)O; NMeNle = CCCC[C@H](NC)C(=O)O; PyrProp = pyridinepropionyl; Tos = Cc1ccc(S(=O)(=O)*)cc1; Nle = CCCC[C@H](N)C(=O)O

This test deals with melanocortin-1 receptor (MC-1r) on murine melanocytes (line S91 Cloudman) (murine) (UniProt Q01727). Put plainly: cell-based or functional assay.
Sequence of melanocortin-1 receptor (MC-1r) on murine melanocytes (line S91 Cloudman) (murine) (Q01727 whole entry): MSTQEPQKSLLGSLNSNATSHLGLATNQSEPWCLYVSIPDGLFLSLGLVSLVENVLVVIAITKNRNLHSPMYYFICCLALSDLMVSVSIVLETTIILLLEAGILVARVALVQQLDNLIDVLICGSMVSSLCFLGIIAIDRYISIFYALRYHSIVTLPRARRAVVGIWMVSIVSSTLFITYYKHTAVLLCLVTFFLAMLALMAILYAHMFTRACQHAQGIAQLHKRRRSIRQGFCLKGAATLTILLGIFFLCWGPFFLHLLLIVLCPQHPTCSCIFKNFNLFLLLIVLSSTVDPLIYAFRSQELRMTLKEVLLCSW
With Ac-[Nle]AH[d2Thi]RW-NH2 [Compound No. 3 in the Table, Ac-Nle-Ala-His-DThi-Arg-Trp-NH2], the cAMP production (as % of α-MSH) was 10 % of α-MSH. Then Tos-[Nle]AH[dF]RW-NH2 [Compound No. 5 in the Table, Tos-Nle-Ala-His-DPhe-Arg-Trp-NH2], with 100 % of α-MSH; and Ac-[Nle]AH[d(hPhe)]RW-NH2 [Compound No. 14 in the Table, Ac-Nle-Ala-His-DHomoPhe-Arg-Trp-NH2], with 45 % of α-MSH.

As for B1, the cAMP production (as % of α-MSH) was 40 % of α-MSH. Then B2, with 55 % of α-MSH; and Benzenesulfonyl-[Nle]AH[dF]RW-NH2 [Compound No. 4 in the Table, BzlSO2-Nle-Ala-His-DPhe-Arg-Trp-NH2], with 70 % of α-MSH; and PyrProp-[Nle]AH[dPhe(4-NO2)]RW-NH2 [Compound No. 11 in the Table, PyrProp-Nle-Ala-His-DpNO2Phe-Arg-Trp-NH2], with 150 % of α-MSH.

With Ac-[NMeNle]AH[d(hPhe)]RW-NH2 [Compound No. 13 in the Table, Ac-MeNle-Ala-His-DHomoPhe-Arg-Trp-NH2], the cAMP production (as % of α-MSH) was 55 % of α-MSH.

Ac-[Nle]AH[dF]RW-NH2 [Compound No. 1 in the Table, Ac-Nle-Ala-His-DPhe-Arg-Trp-NH2]: the cAMP production (as % of α-MSH) was 80 % of α-MSH.
